Laboratory results: the MegaScale stability set (Tsuboyama et al. 2023)

B1: 5KPH (parent)
chain: EEKRQVKQVAKEKLLEQSPNSKVQVRRVQKQGNTIRVELELRTNGKKENYTVEVERQGNTWTVKRITRT

Variants of: B1
Assay: folding stability dG (cDNA display proteolysis); higher = more stable
Details: PBS, room temperature

| Variant | folding stability dG |
| --- | --- |
| EEKRQVKQVAKEKLLEQSPNSKVQVRFVQKQGNTIRVELELRTNGKKENYTVEVERQGNTWTVKRITRT [R27F] | 3.84 kcal/mol |
| EEKRQVKQVAKEKLLEQSPNSKVQVRGVQKQGNTIRVELELRTNGKKENYTVEVERQGNTWTVKRITRT [R27G] | 3.64 kcal/mol |
| EEKRQVKQVAKEKLLEQSPNSKVQVRAVQKQGNTIRVELELRTNGKKENYTVEVERQGNTWTVKRITRT [R27A] | 3.61 kcal/mol |
| EEKRQVKQVAKEKLLEQSPNSKVQVRTVQKQGNTIRVELELRTNGKKENYTVEVERQGNTWTVKRITRT [R27T] | 3.37 kcal/mol |
| EEKRQVKQVAKEKLLEQSPNSKVQVREVQKQGNTIRVELELRTNGKKENYTVEVERQGNTWTVKRITRT [R27E] | 2.76 kcal/mol |
| EEKRQVKQVAKEKLLEQSPNSKVQVRDVQKQGNTIRVELELRTNGKKENYTVEVERQGNTWTVKRITRT [R27D] | 3.1 kcal/mol |
| EEKRQVKQVAKEKLLEQSPNSKVQVRHVQKQGNTIRVELELRTNGKKENYTVEVERQGNTWTVKRITRT [R27H] | 3.71 kcal/mol |
| EEKRQVKQVAKEKLLEQSPNSKVQVRMVQKQGNTIRVELELRTNGKKENYTVEVERQGNTWTVKRITRT [R27M] | 3.43 kcal/mol |
| EEKRQVKQVAKEKLLEQSPNSKVQVRPVQKQGNTIRVELELRTNGKKENYTVEVERQGNTWTVKRITRT [R27P] | 1.38 kcal/mol |
| EEKRQVKQVAKEKLLEQSPNSKVQVRQVQKQGNTIRVELELRTNGKKENYTVEVERQGNTWTVKRITRT [R27Q] | 3.3 kcal/mol |
| EEKRQVKQVAKEKLLEQSPNSKVQVRNVQKQGNTIRVELELRTNGKKENYTVEVERQGNTWTVKRITRT [R27N] | 3.56 kcal/mol |
| EEKRQVKQVAKEKLLEQSPNSKVQVRYVQKQGNTIRVELELRTNGKKENYTVEVERQGNTWTVKRITRT [R27Y] | 3.72 kcal/mol |
| EEKRQVKQVAKEKLLEQSPNSKVQVRLVQKQGNTIRVELELRTNGKKENYTVEVERQGNTWTVKRITRT [R27L] | 3.53 kcal/mol |
| EEKRQVKQVAKEKLLEQSPNSKVQVRVVQKQGNTIRVELELRTNGKKENYTVEVERQGNTWTVKRITRT [R27V] | 3.12 kcal/mol |
| EEKRQVKQVAKEKLLEQSPNSKVQVRIVQKQGNTIRVELELRTNGKKENYTVEVERQGNTWTVKRITRT [R27I] | 3.22 kcal/mol |
| EEKRQVKQVAKEKLLEQSPNSKVQVRSVQKQGNTIRVELELRTNGKKENYTVEVERQGNTWTVKRITRT [R27S] | 3.79 kcal/mol |
| EEKRQVKQVAKEKLLEQSPNSKVQVRCVQKQGNTIRVELELRTNGKKENYTVEVERQGNTWTVKRITRT [R27C] | 3.45 kcal/mol |
| EEKRQVKQVAKEKLLEQSPNSKVQVRWVQKQGNTIRVELELRTNGKKENYTVEVERQGNTWTVKRITRT [R27W] | 4.14 kcal/mol |
| EEKRQVKQVAKEKLLEQSPNSKWQVRRVQKQGNTIRVELELRTNGKKENYTVEVERQGNTWTVKRITRT [V23W] | 2.67 kcal/mol |
| EEKRQVKQVAKEKLLEQSPNSKYQVRRVQKQGNTIRVELELRTNGKKENYTVEVERQGNTWTVKRITRT [V23Y] | 1.94 kcal/mol |

| Variant | folding stability dG |
| --- | --- |
| EEKRQVKQVAKEKLLEQSPNSKVQVDRVQKQGNTIRVELELRTNGKKENYTVEVERQGNTWTVKRITRT [R26D] | 2.16 kcal/mol |
| EEKRQVKQVAKEKLLEQSPNSKVQVNRVQKQGNTIRVELELRTNGKKENYTVEVERQGNTWTVKRITRT [R26N] | 3.51 kcal/mol |
| EEKRQVKQVAKEKLLEQSPNSKVQVMRVQKQGNTIRVELELRTNGKKENYTVEVERQGNTWTVKRITRT [R26M] | 4.11 kcal/mol |
| EEKRQVKQVAKEKLLEQSPNSKVQVSRVQKQGNTIRVELELRTNGKKENYTVEVERQGNTWTVKRITRT [R26S] | 3.35 kcal/mol |
| EEKRQVKQVAKEKLLEQSPNSKVQVCRVQKQGNTIRVELELRTNGKKENYTVEVERQGNTWTVKRITRT [R26C] | 3.65 kcal/mol |
| EEKRQVKQVAKEKLLEQSPNSKVQVLRVQKQGNTIRVELELRTNGKKENYTVEVERQGNTWTVKRITRT [R26L] | 4.62 kcal/mol |
| EEKRQVKQVAKEKLLEQSPNSKVQVVRVQKQGNTIRVELELRTNGKKENYTVEVERQGNTWTVKRITRT [R26V] | 4.16 kcal/mol |
| EEKRQVKQVAKEKLLEQSPNSKVQVYRVQKQGNTIRVELELRTNGKKENYTVEVERQGNTWTVKRITRT [R26Y] | 3.53 kcal/mol |
| EEKRQVKQVAKEKLLEQSPNSKVQVERVQKQGNTIRVELELRTNGKKENYTVEVERQGNTWTVKRITRT [R26E] | 2.58 kcal/mol |
| EEKRQVKQVAKEKLLEQSPNSKVQVPRVQKQGNTIRVELELRTNGKKENYTVEVERQGNTWTVKRITRT [R26P] | 1.51 kcal/mol |
| EEKRQVKQVAKEKLLEQSPNSKVQVQRVQKQGNTIRVELELRTNGKKENYTVEVERQGNTWTVKRITRT [R26Q] | 3.49 kcal/mol |
| EEKRQVKQVAKEKLLEQSPNSKVQVFRVQKQGNTIRVELELRTNGKKENYTVEVERQGNTWTVKRITRT [R26F] | 3.7 kcal/mol |
| EEKRQVKQVAKEKLLEQSPNSKVQVGRVQKQGNTIRVELELRTNGKKENYTVEVERQGNTWTVKRITRT [R26G] | 3.32 kcal/mol |
| EEKRQVKQVAKEKLLEQSPNSKVQVTRVQKQGNTIRVELELRTNGKKENYTVEVERQGNTWTVKRITRT [R26T] | 3.92 kcal/mol |
| EEKRQVKQVAKEKLLEQSPNSKVQVHRVQKQGNTIRVELELRTNGKKENYTVEVERQGNTWTVKRITRT [R26H] | 3.56 kcal/mol |
| EEKRQVKQVAKEKLLEQSPNSKVQVARVQKQGNTIRVELELRTNGKKENYTVEVERQGNTWTVKRITRT [R26A] | 3.09 kcal/mol |
| EEKRQVKQVAKEKLLEQSPNSKVQVWRVQKQGNTIRVELELRTNGKKENYTVEVERQGNTWTVKRITRT [R26W] | 3.49 kcal/mol |
| EEKRQVKQVAKEKLLEQSPNSKVQVIRVQKQGNTIRVELELRTNGKKENYTVEVERQGNTWTVKRITRT [R26I] | 4.25 kcal/mol |
| EEKRQVKQVAKEKLLEQSPNSKVQVKRVQKQGNTIRVELELRTNGKKENYTVEVERQGNTWTVKRITRT [R26K] | 4 kcal/mol |
